One assay addresses T1, human PD-L1 (human, UniProt Q9NZQ7 19-290).
T1 construct: whole, on cells; also called hPD-L1; CHO-K1.hPD-L1
The assay can be described thus: flow cytometry on CHO-K1.hPD-L1 cells, anti-FLAG detection. The procedure: CHO-K1.hPD-L1 cells were resuspended in Stain Buffer (PBS, 2% FBS, 0.05% sodium azide) and 1E5 cells/well were transferred to a 96-well V-bottom plate and centrifuged. Cells were suspended in 100 μL/well serial diluted VHH or anti-PD-L1 antibody (atezolizumab) in Stain Buffer and incubated for 30 minutes at 4° C. VHH binding was detected by resuspending the samples subsequently in 100 μL/well mouse a-FLAG antibody (Sigma: F1804) and detected with PE-labeled goat anti-mouse IgG (Jackson ImmunoResearch: 115-116-071) as detection antibody and 5 nM TOPRO3 (Molecular Probes: T3605) as dead dye. Between each step, the cells were collected via centrifugation for 5 minutes at 200×g and washed three times with 100 μL/well Stain Buffer.
In general terms: A flow cytometer gives signals particle by particle.

Another assay addresses T2, human PD-1 (human, UniProt Q15116 25-288).
T2 construct: whole, on cells; also called hPD-1; CHO-K1.hPD-1
The assay can be described thus: flow cytometry on CHO-K1.hPD-1 cells, anti-FLAG detection.

T1 sequence (Q9NZQ7 19-290): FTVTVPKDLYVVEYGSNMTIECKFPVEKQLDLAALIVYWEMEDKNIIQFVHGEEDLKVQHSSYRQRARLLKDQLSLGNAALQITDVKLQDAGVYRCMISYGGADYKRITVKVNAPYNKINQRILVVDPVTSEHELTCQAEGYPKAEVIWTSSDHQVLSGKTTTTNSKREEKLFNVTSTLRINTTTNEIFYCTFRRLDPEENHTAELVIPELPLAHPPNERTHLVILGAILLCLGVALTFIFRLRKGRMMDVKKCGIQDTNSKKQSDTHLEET
T2 sequence (Q15116 25-288): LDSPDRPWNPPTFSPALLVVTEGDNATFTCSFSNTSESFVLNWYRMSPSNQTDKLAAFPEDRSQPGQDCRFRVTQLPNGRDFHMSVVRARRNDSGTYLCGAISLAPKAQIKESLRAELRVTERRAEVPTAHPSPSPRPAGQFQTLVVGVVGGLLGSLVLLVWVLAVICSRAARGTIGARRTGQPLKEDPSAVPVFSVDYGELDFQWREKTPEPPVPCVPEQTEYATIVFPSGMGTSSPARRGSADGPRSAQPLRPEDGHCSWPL

B1: α-PD-L1 VHH 3 (VHH)
VHH: EVQLVESGGGLVQPGGSLRLSCAASGRTLSNHAMHWFRQAPGKEREFVSAITWSDGETYYEDSVKGRFTISRDNAKDTAYLEMQSLKPEDTAVYYCAAKMGGPTSIPGLVEYWGQGTLVTVSS
Take B1: the binding result with human PD-L1 is “binds”.

B2: α-PD-1 VHH (VHH)
VHH: EVQLVESGGGLVQAGDSLRLSCVASGRTFSSYHMGWFRQAPGKEREFVAAIPRSGSNIGYSAFVKDRGTISRDNAKNTVYLQINNLAPDDTAVYYCAAKSAAGYYSGVVFTADYDYTYWGQGTLVTVSS
notes: also called anti-PD-1 VHH
For B2, the binding result in the assay with human PD-1 is reported as “binds”.

B3: α-PD-L1 VHH 2 (VHH)
VHH: EVQLVESGGGLKQAGGSLRLSCTASARASTYIAMAWFRRTPGKAREFVAAITWSGGHTTYADSMKGRFTISRDNAKNTVYLHLNALQPEDAGVYYCAANQRNTVGPSEGAYPYWGQGTLVTVSS
For B3, the binding result with human PD-L1 is “binds”.

B4: α-PD-L1 VHH (VHH)
VHH: EVQLVESGGGLVQAGGSLSVSCAPSGRTFSNYAMGWFRQAPGKEREFVARISGGGGYTAYADSVKGRFTIARDNAKNTVYLQMNSLKPEDTAVYYCAAGSIDSRQPYDSTRRYDYWGQGTLVTVSS
notes: also called anti-PD-L1 VHH
In the case of B4, the binding result with human PD-L1 was “binds”.
